# Patent US6399314B1, “Methods of detection of amyloidogenic proteins” (American Cyanamid Company, priority 1999, dated 2002)
# Assays:
# β-amyloid protein 1-40 = target: T1, β-amyloid protein 1-40 (Homo sapiens, UniProt P05067); experiment: Fluorescence spectroscopy of Congo red complexes with amyloid peptide; format: binding
# T1 construct: Aβ (1-40) was dissolved in 100% hexafluoroisopropanol
# Source text: 3. Fluorescence spectroscopy was used to differentiate complexes of Congo red. Congo red binds to preformed fibrils as well as to intermediate aggregate forms of the amyloid polypeptide. […] The fluorescence excitation spectrum of Congo red in the aggregate-bound state is also red shifted relative to the free form of the […]. Changes in the fluorescence properties of Congo red are dependent on the aggregated state of the […]. The differences in the observed spectral characteristics of the coaggregates and complexes of the fibrillar polypeptide with Congo red are due to the differences in the relative hydrophobicity of the binding sites and to the number of bound Congo red molecules in the complexes with preformed fibrils and coaggregates.
# The fluorescence emission spectra of complexes of Congo red were obtained after diluting the peptide fivefold into a buffered solution. Congo red was added to freshly diluted fibrillar peptide and the fluorescence spectrum was scanned at a final concentration of 10 μM of peptide. The concentrations of peptide and Congo red in the fluorescence assay were 10 μM and 8.6 μM respectively. The differences in the fluorescence intensities and emission wavelengths of the coaggregates and preformed aggregate-complexes, were due to the relative differences in the hydrophobicity of the binding sites in the two instances.
# Aβ (1-40) = target: T2, Aβ (1-40) (Homo sapiens, UniProt P05067); experiment: CD spectroscopy of peptide aged in the presence of Congo red (coaggregates); format: biochemical; conditions: far-UV CD
# T2 construct: Aβ (1-40) was dissolved in 100% hexafluoroisopropanol
# T2 sequence (P05067 672-711 limits assumed): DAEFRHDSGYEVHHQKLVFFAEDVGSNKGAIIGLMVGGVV
# Source text: Circular Dichroism Spectroscopy. Conformational change of the peptide from the random coil to the β-sheet form, during aging, was monitored using changes to the molar ellipticity of the peptide at 200, 218, or 225 nm. This assay was also used to determine if the changes in the CD spectra occurred concurrently with the changes in the fluorescence spectra of thioflavin. The CD spectrum of the peptide was scanned at various time points to correlate the formation of thioflavin-binding macromolecular assemblies with the appearance of β-sheet conformation.
# CD spectra were recorded on a JASCO™ spectropolarimeter model J715 (Jasco, Easton, Md.) at room temperature in a 0.1 cm pathlength cell. Typically, the peptide samples were aliquoted at various time intervals for fluorescence and the CD spectra were scanned using the remaining solution. The CD spectra of the peptide were recorded in the far-UV between 190-260 nm. The spectral results are expressed as deg.[…].dmol^−1.
# Amyloid peptide (Aβ) was aged in the absence and presence of Congo red as described below: Aβ (1-40) was dissolved in 100% hexafluoroisopropanol to produce a final concentration of 200 or 400 μM. To aid dissolution of peptide, the solution was sonicated briefly, for about five seconds. An appropriate volume of the peptide solution was transferred to an amber vial and the solvent was evaporated under a stream of nitrogen. […]
# [1] = target: T3, aggregated peptide (Aβ(1-40)) (Homo sapiens, UniProt P05067); experiment: Quenching of thioflavin fluorescence by titration with Congo red; format: binding; conditions: for Mode of binding to aggregated peptide: Congo red and thioflavin together on aggregated peptide
# T3 construct: Aβ(1-40) was purchased from Anaspec (San Jose, Calif.); purchased Anaspec (San Jose, Calif.); host or cells: synthetic peptide
# T3 sequence (P05067 672-711 limits assumed): as above
# Source text: In these experiments, thioflavin was complexed with aggregated peptide prior to titration with increasing amounts of Congo red. The resulting decrease in fluorescence intensity is due to energy transfer of the fluorescence emission of thioflavin to Congo red. Therefore, assays that rely on thioflavin alone are likely to generate false positives in primary assays, while spectroscopic assays described in this invention would identify the more promising inhibitors of amyloidogenesis.
# (§1) Spectroscopic Assays. To determine the extent of aggregation, aliquots of the peptide were removed at various time intervals (up to nine hours), and diluted into PBS buffer-containing 10 μM thioflavin. The final concentrations of peptide and thioflavin in the fluorescence assay were 10 μM. The fluorescence intensities of the peptide-thioflavin complex were measured at excitation and emission wavelengths of 435 and 485 nm, respectively, after the reaction had equilibrated for five minutes. Fluorescence spectral scans were made using 435 nm excitation and 485 nm emission wavelengths using a SPEX™ fluorolog-2 spectrofluorometer (Instruments S.A.®, Jobin Yvon-Spex, Edison, N.J.). For the Congo red experiments, peptide-thioflavin complex was titrated with increasing concentrations of Congo red from 0.1 to 3.5 micromolar concentrations. The fluorescence intensity changes were measured at the above-mentioned spectral wavelengths. When fluorescence intensities were measured in a plate reader, the peptide was diluted into PBS buffer-containing 10 μM thioflavin, to a final volume of 100 μL.
# [2] = tested on: rat fetal (E18) hippocampal cultures; experiment: Neurotoxicity assay (LDH release); format: cell-based; conditions: for Toxicity to neuronal cultures: 72 hour toxicity assay
# Description: Neurotoxicity Assay. Peptide was aggregated according to the end points determined in the CD and fluorescence assay and applied to primary neuronal cell cultures to assess cytotoxicity of the aggregated peptide. The release of LDH was used to monitor cell viability in the presence of Aβ and Congo red.
# Aβ(1-40) toxicity was assessed using eight day-in-vitro (DIV) rat fetal (E18) hippocampal cultures. The cells were cultured in 48-well dishes previously coated with […] 0.1 mg/ml of poly-L-lysine (100 μl/well) and, subsequently, with 100 μl/well of 5 μg/ml of mouse laminin. The cells were seeded at a density of 92,300 cells/well in a total volume of 500 μl of NEUROBASAL™ medium containing 1XB27 supplement, 5% heat inactivated and qualified fetal bovine serum, 0.5 mM glutamine, 50 μ/ml penicillin, and 0.05 mg/ml streptomycin, and were initially placed in humidified 5% CO2 in air. After twenty-four hours, the medium was replaced with fresh medium lacking the penicillin, streptomycin, and fetal bovine serum and the cultures were thereafter maintained in air containing 5% CO2 and 9% O2. Fresh medium was substituted into each well on day five. On the seventh day in vitro, the medium was replaced with antioxidant free B27 supplemented medium lacking the penicillin, streptomycin, and fetal bovine serum. The toxicity test was initiated on the eighth day in vitro by substituting into each well 500 μl of the medium used on day seven (as the control treatment) or an experimental solution prepared with the final (control) medium. Each experimental solution was tested on cultures contained in five wells. Toxicity was assessed on the eleventh day in vitro using the lactic acid dehydrogenase (LDH; Sigma 340-UV) assay. Aggregated peptide was diluted five-fold to a final concentration of 10 uM, for the toxicity assays. Complexes of Congo red with preformed aggregates and those formed in co-aggregates were tested in the cellular assays along with aggregated peptide in vehicle controls.
# [3] = Thioflavin fluorescence assay of the extent of aggregation of Aβ(1-40) in different buffers/media; format: physicochemical; design: key to Percent Aggregation in HEPES: ++ indicates aggregates were formed but not quantitated because end point was not reached; conditions: rotary shaker 500 rpm
# Source text: Fluorescence Spectroscopy. Thioflavin binds amyloid fibrils to induce a characteristic hyperchromic fluorescence shift in the spectrum (LeVine, J. Exp. Clin. Invest., 2:1-6, 1995). The induced fluorescence due to thioflavin is specific for amyloid β-pleated fibrils, but not for other β-sheet structures or for the soluble oligomeric forms of the peptide. Free thioflavin is a weak fluorophore with an excitation maximum at 330 nm. Upon binding to the amyloid fibrils, the fluorescence of thioflavin is enhanced with a red shift in the excitation spectrum by 100 nm, relative to the free form. We have used the increase in fluorescence intensity at excitation and emission wavelengths of 440 nm and 485 nm, respectively, to characterize the aggregation event.
# as §1
# Preparation ofAmyloid Peptide. Aβ(1-40) was purchased from Anaspec (San Jose, Calif.) and its chemical purity was verified using reverse phase HPLC, ESI-MS and protein sequencing methods. The lyophilized peptide was dissolved in hexafluoroisopropanol (HFIP) solvent to aid in disaggregation of peptide. Peptide in HFIP solvent, was stored at −80° C. Prior to use, peptide solution was thawed and the solvent was evaporated under a stream of nitrogen. The peptide was dissolved in buffer to obtain a concentration of 50 μM, sonicated approximately twenty to forty seconds, and then vortexed briefly, approximately five seconds or less, to aid dissohltion of peptide. To determine the effects of media on the rates of aggregation, peptide was dissolved in one of the following buffers: PBS, 50 mM HEPES™ or in NEUROBASAL™ medium. Peptide solutions were dispensed into microtiter plates at a final concentration of […] in 100 μL. Aggregation was initiated by shaking plates continuously in a rotary shaker.
# T1 sequence (P05067 672-711 limits assumed): as above
molecule,measurement,setting,value
Nc1c(/N=N/c2ccc(-c3ccc(/N=N/c4cc(S(=O)(=O)[O-])c5ccccc5c4N)cc3)cc2)cc(S(=O)(=O)[O-])c2ccccc12.[Na+].[Na+] [Congo red],Fluorescence enhancement relative to the free form,β-amyloid protein 1-40; Congo red co-aggregated with the amyloid polypeptide,eight-fold
same,Fluorescence enhancement relative to the free form,β-amyloid protein 1-40; complex between preformed fibrils and Congo red,two-fold
same,Effect on aggregation rate of the peptide,Aβ (1-40),slowed down
same,Mode of binding to aggregated peptide,[1],non-competitively
same,Quenching of fluorescence of free thioflavin,[1]; free thioflavin,50%
same,Quenching of fluorescence of peptide-bound thioflavin,"[1]; peptide-bound thioflavin, Congo red 0.1 to 3.5 micromolar",greater than one order of magnitude
same,Effect on toxicity of Aβ,[2]; Congo red complexed with preformed aggregates and in co-aggregates,attenuates the toxicity
same,Neuroprotection of cell cultures exposed to amyloid peptide,"[2]; hippocampal cultures, LDH release",neuroprotective
"Cc1ccc2c(c1)sc(-c1ccc(N(C)C)cc1)[n+]2C.[Cl-] [thioflavin, Thioflavin T]",Mode of binding to aggregated peptide,[1],non-competitively
"Aβ (1-40): synthetic β-amyloid peptide corresponding to the first 40 amino acids of Aβ, purchased from Anaspec",Toxicity to neuronal cultures,[2]; aggregated peptide (aged for four hours),toxic
same,Toxicity to neuronal cultures,[2]; fresh peptide,non-toxic
same,Percent Aggregation in HEPES,[3]; aggregation time 0 hr,0%
same,Percent Aggregation in PBS,[3]; aggregation time 0 hr,0%
same,Percent Aggregation in NEUROBASAL Medium,"[3]; aggregation time 0 hr, relative to thioflavin/Aβ fluorescence at 0 and 4 hr",0%
same,Percent Aggregation in HEPES,[3]; aggregation time 1 hr,0%
same,Percent Aggregation in NEUROBASAL Medium,[3]; aggregation time 1 hr,0%
same,Percent Aggregation in PBS,[3]; aggregation time 1 hr,0%
same,Percent Aggregation in HEPES,[3]; aggregation time 2 hr,0%
same,Percent Aggregation in NEUROBASAL Medium,[3]; aggregation time 2 hr,76%
same,Percent Aggregation in PBS,[3]; aggregation time 2 hr,51%
same,Percent Aggregation in HEPES,[3]; aggregation time 4 hr,++
same,Percent Aggregation in NEUROBASAL Medium,[3]; aggregation time 4 hr,100%
same,Percent Aggregation in PBS,[3]; aggregation time 4 hr,100%
